Experimental data reported in patent US20160136231A1 (ROGNE BIOSCIENCE, published 2016).

T1: GPR1, PathHunter β-Arrestin CHO cell line (human, UniProt P46091 1-355)
T1 sequence (P46091 whole entry, species assumed, looked up): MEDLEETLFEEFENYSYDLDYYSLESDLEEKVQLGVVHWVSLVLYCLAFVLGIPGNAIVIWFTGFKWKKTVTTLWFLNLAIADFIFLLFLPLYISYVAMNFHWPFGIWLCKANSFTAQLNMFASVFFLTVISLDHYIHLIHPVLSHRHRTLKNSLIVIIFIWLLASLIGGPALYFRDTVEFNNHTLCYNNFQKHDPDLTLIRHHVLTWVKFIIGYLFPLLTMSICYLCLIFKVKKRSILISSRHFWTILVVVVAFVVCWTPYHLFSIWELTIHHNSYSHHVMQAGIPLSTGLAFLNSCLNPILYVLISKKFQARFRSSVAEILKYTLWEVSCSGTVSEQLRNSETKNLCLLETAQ

T2: human ChemR23, cAMP Hunter cell line (human, UniProt Q99788 1-373)
T2 sequence (looked up): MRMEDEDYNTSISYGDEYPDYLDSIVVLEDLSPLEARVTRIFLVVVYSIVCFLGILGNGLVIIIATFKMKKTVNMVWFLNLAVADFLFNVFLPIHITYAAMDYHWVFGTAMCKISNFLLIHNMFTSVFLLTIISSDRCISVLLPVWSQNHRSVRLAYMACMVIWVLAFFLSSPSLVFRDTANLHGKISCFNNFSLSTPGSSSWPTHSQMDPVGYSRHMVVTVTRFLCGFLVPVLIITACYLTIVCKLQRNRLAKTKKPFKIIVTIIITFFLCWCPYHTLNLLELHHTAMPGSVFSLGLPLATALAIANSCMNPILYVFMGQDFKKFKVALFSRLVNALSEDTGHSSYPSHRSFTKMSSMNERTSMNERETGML

T3: mouse ChemR23, PathHunter β-Arrestin cell line (mouse, UniProt P97468 1-371)
T3 sequence (P97468 whole entry, looked up): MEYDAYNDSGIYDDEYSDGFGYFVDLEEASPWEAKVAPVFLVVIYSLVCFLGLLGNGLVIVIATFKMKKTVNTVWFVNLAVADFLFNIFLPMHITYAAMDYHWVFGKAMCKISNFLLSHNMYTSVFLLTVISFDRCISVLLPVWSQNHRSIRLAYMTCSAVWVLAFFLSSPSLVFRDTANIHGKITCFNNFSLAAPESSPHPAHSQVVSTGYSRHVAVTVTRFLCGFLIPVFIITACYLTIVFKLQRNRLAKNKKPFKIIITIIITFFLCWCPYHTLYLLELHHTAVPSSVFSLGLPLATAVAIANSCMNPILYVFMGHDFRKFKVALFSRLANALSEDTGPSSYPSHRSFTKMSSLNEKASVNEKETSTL


Experiments:
Assay in all cases: cell-based or functional assay
[1] = biological target: human ChemR23 (CMKLR1), PathHunter β-Arrestin CHO cell line (human, UniProt Q99788 1-373)
[2] = biological target: T1, GPR1, PathHunter β-Arrestin CHO cell …
[3] = biological target: T2, human ChemR23, cAMP Hunter cell line
[4] = biological target: T3, mouse ChemR23, PathHunter β-Arrestin …

Row | Binder | % Max Activity, PathHunter β-Arrestin agonist [1] [%] | % Max Inhibition, PathHunter β-Arrestin antagonist against chemerin at EC80 [1] [%] | [EC50] (M), PathHunter β-Arrestin agonist [1] [M] | [IC50] (M), PathHunter β-Arrestin antagonist against chemerin at EC80 [1] [M] | % Max Activity, PathHunter β-Arrestin agonist [2] [%] | % Max Inhibition, PathHunter β-Arrestin antagonist against chemerin at EC80 [2] [%] | [EC50] (M), PathHunter β-Arrestin agonist [2] [M] | [IC50] (M), PathHunter β-Arrestin antagonist against chemerin at EC80 [2] [M] | IC50, cAMP, Antagonist (RC50, uM) [3] [µM] | EC50, Arrestin, Agonist (RC50, uM) [4] [µM] | IC50, Arrestin, Antagonist (RC50, uM) [4] [µM]
1 | AGEDPHSFYFPGQFA [human chemerin C15 peptide] | 0.8 | 0 | > 1e-05 | > 1e-05 | 10.6 | 0 | 0.017 | > 1e-05 | > 10 | > 10 | 9.66
2 | AGEDPHSFYFPGQFAFS [human chemerin C17 peptide] | 67.5 | 0 | 4.8e-07 | > 1e-05 | 80.9 | 0 | 1.5e-09 | > 1e-05 | > 10 | 0.84 | > 10
3 | AGEDPHSFYFPGQFAF [human chemerin C16 peptide] | 98.6 | 0 | 2.9e-08 | > 1e-05 | 87.9 | 0 | 2.1e-09 | > 1e-05 | > 10 | 0.0385 | > 10
4 | AGEDPHGYFLPGQFA [mouse chemerin C15 peptide] | 0.4 | 0 | > 1e-05 | > 1e-05 | 27.8 | 0 | 3.7e-06 | > 1e-05 | > 10 | > 10 | > 10
